Measured values from PMC4381330, “Identification of a novel selective agonist of PPARγ with no promotion of adipogenesis and less inhibition of osteoblastogenesis” (Scientific Reports, 2015).

What was measured:
[1] = target: GST-fused human PPARγ-LBD (human); experiment: AlphaScreen or HTRF; LanthaScreen TR-FRET coregulator peptide assay; serial concentrations of rosiglitazone with GST-PPARγ-LBD, terbium-labeled anti-GST antibody and fluorescein-labeled peptide, 4 h; 520 nm/495 nm ratio
[2] = target: GST-fused human PPARγ-LBD (human); experiment: AlphaScreen or HTRF; LanthaScreen TR-FRET coregulator peptide assay; serial concentrations of F12016 with GST-PPARγ-LBD, terbium-labeled anti-GST antibody and fluorescein-labeled peptide, 4 h; coactivator data as percent of the maximum of rosiglitazone

Row | Substance | efficacy (maximum recruitment, % of rosiglitazone), with rosiglitazone [1] | efficacy (maximum recruitment, % of rosiglitazone), with F12016 [2]
1 | CREB-binding protein (CBP) peptide, fluorescein-labeled | 100% | 10%
2 | steroid receptor coactivator (SRC) 1 peptide, fluorescein-labeled | 100% | 26%
3 | steroid receptor coactivator (SRC) 3 peptide, fluorescein-labeled | 100% | 23%
4 | transcriptional intermediary factor 2 (TIF2) peptide, fluorescein-labeled | 100% | 17%
